# Results as given in US9157064B2, “Methods for generating inner ear cells in vitro” (The Board of Trustees of the Leland Stanford Junior …, priority 2011, dated 2015).
# Entries after “also recorded” stand apart in the source; their conditions may differ.
# B1: Wnt3a: recombinant Wnt3a (protein, UniProt P56704 19-352, looked up)
# Protein Wnt-3a: SYPIWWSLAVGPQYSSLGSQPILCASIPGLVPKQLRFCRNYVEIMPSVAEGIKIGIQECQHQFRGRRWNCTTVHDSLAIFGPVLDKATRESAFVHAIASAGVAFAVTRSCAEGTAAICGCSSRHQGSPGKGWKWGGCSEDIEFGGMVSREFADARENRPDARSAMNRHNNEAGRQAIASHMHLKCKCHGLSGSCEVKTCWWSQPDFRAIGDFLKDKYDSASEMVVEKHRESRGWVETLRPRYTYFKVPTERDLVYYEASPNFCEPNPETGSFGTRDRTCNVSSHGIDGCDLLCCGRGHNARAERRREKCRCVFHWCCYVSCQECTRVYDVHTCK
# B2: Noggin: naturally occurring inhibitor of BMP signaling (protein, UniProt Q13253 28-232, looked up)
# Noggin: QHYLHIRPAPSDNLPLVDLIEHPDPIFDPKEKDLNETLLRSLLGGHYDPGFMATSPPEDRPGGGGGAAGGAEDLAELDQLLRQRPSGAMPSEIKGLEFSEGLAQGKKQRLSKKLRRKLQMWLWSQTFCPVLYAWNDLGSRFWPRYVKVGSCFSKRSCSVPEGMVCKPSKSVHLTVLRWRCQRRGGQRCGWIPIQYPIISECKCSC
# B3: BMP4: activator of BMP signaling (protein, UniProt P12644 293-408, looked up)
# Bone morphogenetic protein 4: SPKHHSQRARKKNKNCRRHSLYVDFSDVGWNDWIVAPPGYQAFYCHGDCPFPLADHLNSTNHAIVQTLVNSVNSSIPKACCVPTELSAISMLYLDEYDKVVLKNYQEMVVEGCGCR
# B4: Dkk1: recombinant mouse Dickkopf related protein 1, Wnt inhibitor (protein, UniProt O54908 32-272, looked up)
# Dickkopf-related protein 1: TLNSVLINSNAIKNLPPPLGGAGGQPGSAVSVAPGVLYEGGNKYQTLDNYQPYPCAEDEECGSDEYCSSPSRGAAGVGGVQICLACRKRRKRCMRHAMCCPGNYCKNGICMPSDHSHFPRGEIEESIIENLGNDHNAAAGDGYPRRTTLTSKIYHTKGQEGSVCLRSSDCAAGLCCARHFWSKICKPVLKEGQVCTKHKRKGSHGLEIFQRCYCGEGLACRIQKDHHQASNSSRLHTCQRH
# B5: R-spondin 1: Roof plate-specific Spondin 1, natural enhancer of the canonical Wnt pathway (protein, UniProt Q2MKA7 21-263, looked up)
# R-spondin-1: SRGIKGKRQRRISAEGSQACAKGCELCSEVNGCLKCSPKLFILLERNDIRQVGVCLPSCPPGYFDARNPDMNKCIKCKIEHCEACFSHNFCTKCKEGLYLHKGRCYPACPEGSSAANGTMECSSPAQCEMSEWSPWGPCSKKQQLCGFRRGSEERTRRVLHAPVGDHAACSDTKETRRCTVRRVPCPEGQKRRKGGQGRRENANRNLARKESKEAGAGSRRRKGQQQQQQQGTVGPLTSAGPA
# Experiments:
# [1] = system: ESC- and iPSC-derived cells; experiment: Differentiation cultures of D/S/I and bFGF-treated ESC- and iPSC-derived cells with added supplements; format: cell-based, mouse; conditions: differentiation cultures supplemented, data not shown
# Description: Future identification of these signals could provide important clues about the mechanisms controlling the initiation of hair bundle growth during embryonic development.
# Beside FGF signaling, activation of the canonical Wnt pathway has been proposed to further promote otic commitment of Pax2-expressing cells of the FGF-dependent pre-otic field of the chicken embryo (Ohyama et al., 2006).
# [2] = system: ESC-derived embryoid bodies; experiment: Suppression of meso- and endodermal differentiation in ESC-derived embryoid bodies (Brachyury/GATA6 immunostaining); format: cell-based, mouse; conditions: single factor
# Method: (§1) ES cell line C9 and iPS cell line #25-5 were used for all guidance experiments. MEF feeder cells were removed either by weaning the cells off for several passages or by pre-culturing the cells for 40 min allowing MEFs to attach. For embryoid body formation, the cells were dissociated with 0.25% trypsin-EDTA (Invitrogen) and cultured in poly(2-hydroxyethyl methacrylate)-coated 6-well cell suspension plates (Greiner). Coating was done by covering the plates with 1 ml of 2% poly(2 hydroxyethyl methacrylate) (Sigma) solution in 1:1 ethanol/acetone. After 2 min, the solution was completely aspirated and the plates were dried with open lid for 20 min in a cell culture cabinet. After three washes with PBS, the ES and iPS cells were added at a density of 50 cells/ml and cultured for 5 days in DMEM (Invitrogen) with 15% FBS, 0.1 mM MEM non-essential amino acids, […] 2-mercaptoethanol, 2 mM L-glutamine and […] ampicillin. For otic induction experiments, the following growth factors or reagents were added to the medium: recombinant mouse Dickkopf related protein 1 (Dkk-1) at 100 ng/ml (R&D Systems), SIS3 at […] (Sigma), and IGF1 at 10 ng/ml (Sigma). […]
# (§2) For immunocytochemistry, the cells were fixed with 4% paraformaldehyde in PBS for 15 min at room temperature. […] Images were acquired with a Zeiss Axioimager/LSM 5 Exciter fluorescence and confocal microscope. […]
# [3] = system: ESC-derived cultures; experiment: Otic induction of ESC-derived embryoid body cultures (Pax2 immunostaining); format: cell-based, mouse; conditions: D/S/I-treated ESC-derived embryoid body cells; SU5402 treatment between d5 and d8
# Method: Embryoid bodies were transferred into fibronectin-coated 4-well dishes (Greiner) at 30 embryoid bodies per well and cultured for three days in DMEM/F12 (Invitrogen, mixed 1:1) supplemented with N2 and B27 (Invitrogen), bFGF (R&D Systems, 25 ng/ml), heparin sulfate (Sigma, 50 ng/ml), and ampicillin ([…]). FGF3 (recombinant human FGF-3, R&D Systems) and FGF10 (recombinant human FGF-10, R&D Systems) were used at 25 ng/ml in parallel experiments. The FGF receptor antagonist SU5402 (a gift from Pfizer R&D) was used at […]. After FGF-treatment, the cells were detached using 0.05% trypsin/EDTA (Sigma) in PBS, mildly triturated, and passed 1:10 into individual wells of 4-well dishes coated with either fibronectin, gelatin, MEFs, or mitotically inactivated embryonic (E18) chicken utricle stromal cells. Utricle stromal cells were prepared from 20 utricles whose sensory epithelia were removed after 40 min treatment with 0.5 mg/ml thermolysin (Sigma) in DMEM/F12 at 37 C. After addition of 5% serum, the sensory epithelia were removed and used in unrelated experiments. […]
# as §2
# [4] = system: hESCs; experiment: Otic induction from hESCs (PAX2-expressing otic progenitor cells); format: cell-based, human; conditions: hESC-derived cultures; factor added in the induction and/or stabilization phase (FIG. 23)
# Method: FIG. 22. Optimization of lengths of incubations with factors for culturing cell populations comprising otic progenitor cells from hESCs. (a) and (b). A culture that is enriched 8.3% for PAX2-expressing otic progenitor cells may be generated by the incubation of hESCs with DKK1/SIS3/IFG-1 for 5 days, followed by incubation of the resultant embryoid bodies comprising preplacodal ectodermal cells with bFGF for 3 days.
# FIG. 23A-C. Culturing in the presence of different factors impacts the proportion of otic progenitor cells produced. (a) Culturing in the presence of BMP4 reduces the proportion of otic progenitor cells produced. (b) Culturing in the presence of Noggin during the induction phase of otic progenitor cell fate acquisition, and restricting the exposure of cells to BMP4 to the stabilization phase of otic progenitor cell fate acquisition increases the proportion of otic progenitor cells produced. (c) Culturing in the presence of R-spondin 1 during the induction phase of otic progenitor cell fate acquisition increases the proportion of otic progenitor cells produced.
# FIG. 23D. Culturing in the presence of FGF19 during both the induction phase and the stabilization phase of otic progenitor cell fate acquisition increases the proportion of otic progenitor cells produced.
# [5] = system: iPSC-derived embryoid bodies; experiment: Suppression of meso- and endodermal differentiation in iPSC-derived embryoid bodies (Brachyury/GATA6 immunostaining); format: cell-based, mouse; conditions: single factor
# Method: as §1, §2
molecule,measurement,setting,value
"[Cl-].[Li+] [LiCl, reference compound]",ability or efficiency to generate hair cell-like cells,[1],did not observe an increase
"COc1cc2c(cc1OC)CN(C(=O)/C=C/c1c(-c3ccccc3)n(C)c3ncccc13)CC2 [SIS3, reference compound]","number of Brachyury-positive cells, factor alone",[2],significantly reduced
Cc1c[nH]c(/C=C2\C(=O)Nc3ccccc32)c1CCC(=O)O [SU5402],Pax2 induction / Pax2 expression,[3],abolishment of Pax2 induction; also recorded: virtually diminished Pax2 expression
"FGF19: fibroblast growth factor 19, ligand for FGFR4",proportion of otic progenitor cells produced,[4],increases
B1,ability or efficiency to generate hair cell-like cells,[1],did not observe an increase
B2,proportion of otic progenitor cells produced,[4],increases
B3,proportion of otic progenitor cells produced,[4],reduces
B4,"number of Brachyury-positive cells, factor alone",[2],significantly reduced
same,"Brachyury-expressing cell population, factor alone",[5],significantly reduce
B5,proportion of otic progenitor cells produced,[4],increases
